Test results as given in PMC10531703.

Biological target: F10_Y11delinsLN mutant human γS-crystallin (human) (UniProt P22914)
Sequence (P22914 other isoform, or with tags, fused parts or gaps mutant): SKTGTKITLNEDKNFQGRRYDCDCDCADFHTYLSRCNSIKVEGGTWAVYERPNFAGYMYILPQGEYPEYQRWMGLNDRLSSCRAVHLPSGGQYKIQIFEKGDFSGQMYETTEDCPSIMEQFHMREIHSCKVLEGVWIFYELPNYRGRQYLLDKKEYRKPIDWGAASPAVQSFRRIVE

Chain of human αA-crystallin (P02489 whole entry): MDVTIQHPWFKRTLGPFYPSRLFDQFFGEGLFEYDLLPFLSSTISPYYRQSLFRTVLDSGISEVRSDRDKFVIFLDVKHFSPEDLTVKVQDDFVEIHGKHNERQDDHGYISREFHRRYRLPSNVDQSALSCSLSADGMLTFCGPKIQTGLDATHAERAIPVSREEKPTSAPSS

## human αA-crystallin (from UniProt P02489 1-173) (natural protein)
  particle radius by dynamic light scattering, 30 to 60 °C; 1:1 molar ratio mixture (the mutant alone: 1063 nm radius after heating to 60 °C): 13.3 nm
